Source: the supplement of paper PMC10567573

B1: SLC2A12 (parent)
chain: LTLVFFVQITGQPNILFYASTVLK

Variants of: B1
Assay: protein stability index of a GFP-peptide fusion (GPS, HEK-293T) (PSI 1-6); higher = more stable
Conditions: c terminus: a fixed tail appended
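Further: lentivirally expressed fusions sorted by FACS into six bins by GFP to DsRed ratio, PSI derived from sequencing read proportions per bin multiplied by bin number.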

Protein stability index, by site and new letter:
F6: T 2.35 | L 2.26 | Q 4.18 | A 2.9 | W 2.85 | G 3.11 | H 3.02 | D 2.69 | V 3.64
P13: E 3.73 | H 3.43 | Q 2.05 | K 2.67 | R 3.44 | Y 2.2 | A 3.85 | S 3.1 | T 2.59 | G 5.6 | I 2.72 | V 3.35
Q12: K 3.74 | Y 2.33 | L 3.8 | I 2.73 | V 2.91 | N 1.94 | R 2.64 | S 2.21 | M 3.94 | C 2.83 | D 2.94 | E 2.25 | T 3.22
Q8: G 2.93 | K 3.48 | I 3.94 | E 3.4 | P 2.51 | H 3.26 | C 3.19 | F 3.87 | N 3.92 | T 3.53 | L 2.46 | A 4.06 | S 2.51
V4: I 2.99 | L 2.65 | K 2.64 | Q 3.56 | Y 2.54 | C 3.38 | H 3.15 | E 1.44 | P 2.67 | D 3.68 | S 2.54 | N 2.73 | M 2.09 | G 4 | W 2.98
L16: P 4.12 | D 2.58 | C 2.98 | T 3.51 | G 2.02 | M 3.19 | A 4.05 | R 3.61 | H 1.6
G11: N 3.96 | A 2.87 | C 2.58 | L 2.33 | S 2.87 | Y 3.04 | T 2.29 | D 3.42 | F 2.92 | P 3.28 | Q 4.06 | M 3.38 | V 2.45
N14: R 3.96 | D 3.93 | I 4.38 | Y 1.5 | A 2.73 | E 1.76 | H 2.96 | T 3.06 | S 2.14 | C 1.99 | L 3.78 | G 3.5 | F 3.6 | M 2.01 | P 2.34 | Q 3.83
F5: V 2.47 | Q 2.13 | P 3.32 | R 3.67 | H 1.93 | N 2.65 | E 2.7 | W 3.59 | S 1.66 | Y 2.52 | I 2.45 | T 1.96
V7: Y 3.38 | K 1.59 | H 3.64 | M 4.19 | A 2.03 | S 2.3 | W 2.61 | D 3.27
F17: S 2.69 | H 3.19 | K 3.38 | A 1.86 | T 3.28 | Q 3.16 | M 2.52 | N 2.66
T10: N 1.88 | I 3.61 | Y 3.46 | P 5.16 | D 2.75 | A 3.42 | F 2.92 | K 3.77 | E 2.11 | H 2.17 | S 1.67 | Q 1.31
I15: A 2.99 | F 3.04 | S 4.88 | W 2.63 | Y 3.83 | Q 2.46 | C 2.48 | K 2.67 | E 2.91 | L 4.71
L3: T 4.46 | W 4.1 | Y 2.54 | V 4.79
I9: T 3.18 | H 4.79 | S 3.01 | L 5.05 | R 3.42 | A 2.57 | E 4.04 | Q 1.99 | W 3.12 | F 2.63 | G 2.45 | N 3.06 | M 3.4
